Experimental data reported in publication PMC9352680, “A comprehensive thermodynamic model for RNA binding by the Saccharomyces cerevisiae Pumilio protein PUF4”.

T1: PUF4 RNA-binding domain (Saccharomyces cerevisiae, UniProt P25339 537-888)
T1 sequence: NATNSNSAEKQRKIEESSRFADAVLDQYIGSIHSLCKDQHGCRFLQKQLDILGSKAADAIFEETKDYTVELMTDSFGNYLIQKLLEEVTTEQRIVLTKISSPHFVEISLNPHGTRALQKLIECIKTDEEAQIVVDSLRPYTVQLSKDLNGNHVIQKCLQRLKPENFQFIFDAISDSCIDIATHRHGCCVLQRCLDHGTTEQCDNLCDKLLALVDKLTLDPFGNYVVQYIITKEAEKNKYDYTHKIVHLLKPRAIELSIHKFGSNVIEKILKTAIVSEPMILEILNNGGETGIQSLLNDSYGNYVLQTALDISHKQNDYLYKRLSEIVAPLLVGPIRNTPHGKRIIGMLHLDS


Target: T1, PUF4 RNA-binding domain
Assay: Mg; RNA-MaP; 20 mM Na-HEPES pH 7.4, 30 mM KOAc, 0.75 mM MgCl2, 0.1% Tween-20, 5% glycerol, 0.1 mg/mL BSA, 2 mM DTT; 25 C; 0.0125-409.6 nM protein
Details: tags: N-His6-TEV cleaved; C-SNAP kept, Cy3B-labelled; label: tethered on chip by stalled RNA polymerase

| Binder | Kd |
| --- | --- |
| UCUCUUUGUACGUUCUCUCUU (ssRNA) [Ic_S1_P4E.1_K4.1_C4.1_H4.1_A4.1_[T5C]_[A6G]_F4.1_[A9C]_T4.1] | 29.9 nM |
| UCUCUUUGUACCAGCUCUCUU (ssRNA) [Ic_S1_P4E.1_K4.1_C4.1_H4.1_A4.1_[T5C]_[A6C]_[T7A]_F4.1_[T8G]_[A9C]_T4.1] | 913 nM |
| UCUCUUUGUACCUGUUCUCUU (ssRNA) [Ic_S1_P4E.1_K4.1_C4.1_H4.1_A4.1_[T5C]_[A6C]_F4.1_[T8G]_[A9T]_T4.1] | 94 nM |
| UCUCUUUGUACCAAAUCUCUU (ssRNA) [Ic_S1_P4E.1_K4.1_C4.1_H4.1_A4.1_[T5C]_[A6C]_[T7A]_F4.1_[T8A]_T4.1] | 68 nM |
| UCUCUUUGUACGUGAUCUCUU (ssRNA) [Ic_S1_P4E.1_K4.1_C4.1_H4.1_A4.1_[T5C]_[A6G]_F4.1_[T8G]_T4.1] | 629 nM |
| UCUCUUUGUACGUCAUCUCUU (ssRNA) [Ic_S1_P4E.1_K4.1_C4.1_H4.1_A4.1_[T5C]_[A6G]_F4.1_[T8C]_T4.1] | 118 nM |
| UCUCUUUGUACCCAAUCUCUU (ssRNA) [Ic_S1_P4E.1_K4.1_C4.1_H4.1_A4.1_[T5C]_[A6C]_[T7C]_F4.1_[T8A]_T4.1] | 833 nM |
| UCUCUUUGUACCCUGUCUCUU (ssRNA) [Ic_S1_P4E.1_K4.1_C4.1_H4.1_A4.1_[T5C]_[A6C]_[T7C]_F4.1_[A9G]_T4.1] | 32.7 nM |
| UCUCUUUGUACCGUCUCUCUU (ssRNA) [Ic_S1_P4E.1_K4.1_C4.1_H4.1_A4.1_[T5C]_[A6C]_[T7G]_F4.1_[A9C]_T4.1] | 1140 nM |
| UCUCUUUGUACCCUCUCUCUU (ssRNA) [Ic_S1_P4E.1_K4.1_C4.1_H4.1_A4.1_[T5C]_[A6C]_[T7C]_F4.1_[A9C]_T4.1] | 41.9 nM |
| UCUCUUUGUACCGCCUCUCUU (ssRNA) [Ic_S1_P4E.1_K4.1_C4.1_H4.1_A4.1_[T5C]_[A6C]_[T7G]_F4.1_[T8C]_[A9C]_T4.1] | 1630 nM |
| UCUCUUUGUACCUAAUCUCUU (ssRNA) [Ic_S1_P4E.1_K4.1_C4.1_H4.1_A4.1_[T5C]_[A6C]_F4.1_[T8A]_T4.1] | 66.3 nM |
| UCUCUUUGUACGUGUUCUCUU (ssRNA) [Ic_S1_P4E.1_K4.1_C4.1_H4.1_A4.1_[T5C]_[A6G]_F4.1_[T8G]_[A9T]_T4.1] | 110 nM |
| UCUCUUUGUGUACAUCUCUU (ssRNA) [Ib_S1_P3E.1_K3.1_C3.1_H3.1_[A4G]_A3.1_F3.1_[T7C]_T3.1] | 38.9 nM |
| UCUCUUUGCAUACAUCUCUU (ssRNA) [Ib_S1_P3E.1_K3.1_C3.1_H3.1_[T3C]_A3.1_F3.1_[T7C]_T3.1] | > 2300 nM |
| UCUCUUUGUACCAGGUCUCUU (ssRNA) [Ic_S1_P4E.1_K4.1_C4.1_H4.1_A4.1_[T5C]_[A6C]_[T7A]_F4.1_[T8G]_[A9G]_T4.1] | 1790 nM |
| UCUCUUUGUACCCAGUCUCUU (ssRNA) [Ic_S1_P4E.1_K4.1_C4.1_H4.1_A4.1_[T5C]_[A6C]_[T7C]_F4.1_[T8A]_[A9G]_T4.1] | 1230 nM |
| UCUCUUUGUACCGCGUCUCUU (ssRNA) [Ic_S1_P4E.1_K4.1_C4.1_H4.1_A4.1_[T5C]_[A6C]_[T7G]_F4.1_[T8C]_[A9G]_T4.1] | 1120 nM |
| UCUCUUUGUACCUCGUCUCUU (ssRNA) [Ic_S1_P4E.1_K4.1_C4.1_H4.1_A4.1_[T5C]_[A6C]_F4.1_[T8C]_[A9G]_T4.1] | 575 nM |
| UCUCUUUGUACCUCUUCUCUU (ssRNA) [Ic_S1_P4E.1_K4.1_C4.1_H4.1_A4.1_[T5C]_[A6C]_F4.1_[T8C]_[A9T]_T4.1] | 587 nM |

| Binder | Kd |
| --- | --- |
| UCUCUUUUUAUAAAUCUCUU (ssRNA) [Ib_S1_P3E.1_K3.1_C3.1_H3.1_[G2T]_A3.1_F3.1_[T7A]_T3.1] | > 2300 nM |
| UCUCUUUGUACGUGCUCUCUU (ssRNA) [Ic_S1_P4E.1_K4.1_C4.1_H4.1_A4.1_[T5C]_[A6G]_F4.1_[T8G]_[A9C]_T4.1] | 466 nM |
| UCUCUUUGUACUGGUUCUCUU (ssRNA) [Ic_S1_P4E.1_K4.1_C4.1_H4.1_A4.1_[T5C]_[A6T]_[T7G]_F4.1_[T8G]_[A9T]_T4.1] | 732 nM |
| UCUCUUUGUACCAAUUCUCUU (ssRNA) [Ic_S1_P4E.1_K4.1_C4.1_H4.1_A4.1_[T5C]_[A6C]_[T7A]_F4.1_[T8A]_[A9T]_T4.1] | 103 nM |
| UCUCUUUGUACCGGCUCUCUU (ssRNA) [Ic_S1_P4E.1_K4.1_C4.1_H4.1_A4.1_[T5C]_[A6C]_[T7G]_F4.1_[T8G]_[A9C]_T4.1] | > 2300 nM |
| UCUCUUUGUACGUAGUCUCUU (ssRNA) [Ic_S1_P4E.1_K4.1_C4.1_H4.1_A4.1_[T5C]_[A6G]_F4.1_[T8A]_[A9G]_T4.1] | 93.5 nM |
| UCUCUUUGUACCUCCUCUCUU (ssRNA) [Ic_S1_P4E.1_K4.1_C4.1_H4.1_A4.1_[T5C]_[A6C]_F4.1_[T8C]_[A9C]_T4.1] | 570 nM |
| UCUCUUUGUACCUACUCUCUU (ssRNA) [Ic_S1_P4E.1_K4.1_C4.1_H4.1_A4.1_[T5C]_[A6C]_F4.1_[T8A]_[A9C]_T4.1] | 56.6 nM |
| UCUCUUUGUACCGUUUCUCUU (ssRNA) [Ic_S1_P4E.1_K4.1_C4.1_H4.1_A4.1_[T5C]_[A6C]_[T7G]_F4.1_[A9T]_T4.1] | 142 nM |
| UCUCUUUGUACCUUUUCUCUU (ssRNA) [Ic_S1_P4E.1_K4.1_C4.1_H4.1_A4.1_[T5C]_[A6C]_F4.1_[A9T]_T4.1] | 34.8 nM |
| UCUCUUUGUACGUUGUCUCUU (ssRNA) [Ic_S1_P4E.1_K4.1_C4.1_H4.1_A4.1_[T5C]_[A6G]_F4.1_[A9G]_T4.1] | 40.5 nM |
| UCUCUUUGUACCCGGUCUCUU (ssRNA) [Ic_S1_P4E.1_K4.1_C4.1_H4.1_A4.1_[T5C]_[A6C]_[T7C]_F4.1_[T8G]_[A9G]_T4.1] | > 2300 nM |
| UCUCUUUGUACCACCUCUCUU (ssRNA) [Ic_S1_P4E.1_K4.1_C4.1_H4.1_A4.1_[T5C]_[A6C]_[T7A]_F4.1_[T8C]_[A9C]_T4.1] | 573 nM |
| UCUCUUUGUACCGUGUCUCUU (ssRNA) [Ic_S1_P4E.1_K4.1_C4.1_H4.1_A4.1_[T5C]_[A6C]_[T7G]_F4.1_[A9G]_T4.1] | 515 nM |
| UCUCUUUGUGUAAAUCUCUU (ssRNA) [Ib_S1_P3E.1_K3.1_C3.1_H3.1_[A4G]_A3.1_F3.1_[T7A]_T3.1] | 202 nM |
| UCUCUUUGUACGUACUCUCUU (ssRNA) [Ic_S1_P4E.1_K4.1_C4.1_H4.1_A4.1_[T5C]_[A6G]_F4.1_[T8A]_[A9C]_T4.1] | 1560 nM |
| UCUCUUUGUACCCCCUCUCUU (ssRNA) [Ic_S1_P4E.1_K4.1_C4.1_H4.1_A4.1_[T5C]_[A6C]_[T7C]_F4.1_[T8C]_[A9C]_T4.1] | 1090 nM |
| UCUCUUUGUACCAUGUCUCUU (ssRNA) [Ic_S1_P4E.1_K4.1_C4.1_H4.1_A4.1_[T5C]_[A6C]_[T7A]_F4.1_[A9G]_T4.1] | 3.4 nM |
| UCUCUUUGUACCAACUCUCUU (ssRNA) [Ic_S1_P4E.1_K4.1_C4.1_H4.1_A4.1_[T5C]_[A6C]_[T7A]_F4.1_[T8A]_[A9C]_T4.1] | 271 nM |
| UCUCUUUGUACCCAUUCUCUU (ssRNA) [Ic_S1_P4E.1_K4.1_C4.1_H4.1_A4.1_[T5C]_[A6C]_[T7C]_F4.1_[T8A]_[A9T]_T4.1] | 517 nM |

| Binder | Kd |
| --- | --- |
| UCUCUUUGUACCACGUCUCUU (ssRNA) [Ic_S1_P4E.1_K4.1_C4.1_H4.1_A4.1_[T5C]_[A6C]_[T7A]_F4.1_[T8C]_[A9G]_T4.1] | 652 nM |
| UCUCUUUGUACCUUGUCUCUU (ssRNA) [Ic_S1_P4E.1_K4.1_C4.1_H4.1_A4.1_[T5C]_[A6C]_F4.1_[A9G]_T4.1] | 27.3 nM |
| UCUCUUUGUACGUCUUCUCUU (ssRNA) [Ic_S1_P4E.1_K4.1_C4.1_H4.1_A4.1_[T5C]_[A6G]_F4.1_[T8C]_[A9T]_T4.1] | 1520 nM |
| UCUCUUUGUACCCGCUCUCUU (ssRNA) [Ic_S1_P4E.1_K4.1_C4.1_H4.1_A4.1_[T5C]_[A6C]_[T7C]_F4.1_[T8G]_[A9C]_T4.1] | 1420 nM |
| UCUCUUUGUACCGCUUCUCUU (ssRNA) [Ic_S1_P4E.1_K4.1_C4.1_H4.1_A4.1_[T5C]_[A6C]_[T7G]_F4.1_[T8C]_[A9T]_T4.1] | 741 nM |
| UCUCUUUGUACCCGUUCUCUU (ssRNA) [Ic_S1_P4E.1_K4.1_C4.1_H4.1_A4.1_[T5C]_[A6C]_[T7C]_F4.1_[T8G]_[A9T]_T4.1] | 842 nM |
| UCUCUUUGUACCCCUUCUCUU (ssRNA) [Ic_S1_P4E.1_K4.1_C4.1_H4.1_A4.1_[T5C]_[A6C]_[T7C]_F4.1_[T8C]_[A9T]_T4.1] | 808 nM |
| UCUCUUUGUACGUUUUCUCUU (ssRNA) [Ic_S1_P4E.1_K4.1_C4.1_H4.1_A4.1_[T5C]_[A6G]_F4.1_[A9T]_T4.1] | 37.8 nM |
| UCUCUUUGUACCAAGUCUCUU (ssRNA) [Ic_S1_P4E.1_K4.1_C4.1_H4.1_A4.1_[T5C]_[A6C]_[T7A]_F4.1_[T8A]_[A9G]_T4.1] | 755 nM |
| UCUCUUUAUAUACAUCUCUU (ssRNA) [Ib_S1_P3E.1_K3.1_C3.1_H3.1_[G2A]_A3.1_F3.1_[T7C]_T3.1] | > 2300 nM |
| UCUCUUUGUACCGAUUCUCUU (ssRNA) [Ic_S1_P4E.1_K4.1_C4.1_H4.1_A4.1_[T5C]_[A6C]_[T7G]_F4.1_[T8A]_[A9T]_T4.1] | 519 nM |
| UCUCUUUGUACCCUAUCUCUU (ssRNA) [Ic_S1_P4E.1_K4.1_C4.1_H4.1_A4.1_[T5C]_[A6C]_[T7C]_F4.1_T4.1] | 7.5 nM |
| UCUCUUUGUACCCCGUCUCUU (ssRNA) [Ic_S1_P4E.1_K4.1_C4.1_H4.1_A4.1_[T5C]_[A6C]_[T7C]_F4.1_[T8C]_[A9G]_T4.1] | > 2300 nM |
| UCUCUUUGUACGUAUUCUCUU (ssRNA) [Ic_S1_P4E.1_K4.1_C4.1_H4.1_A4.1_[T5C]_[A6G]_F4.1_[T8A]_[A9T]_T4.1] | 96.3 nM |
| UCUCUUUGUACCGUAUCUCUU (ssRNA) [Ic_S1_P4E.1_K4.1_C4.1_H4.1_A4.1_[T5C]_[A6C]_[T7G]_F4.1_T4.1] | 23.4 nM |
| UCUCUUUGUACCAUUUCUCUU (ssRNA) [Ic_S1_P4E.1_K4.1_C4.1_H4.1_A4.1_[T5C]_[A6C]_[T7A]_F4.1_[A9T]_T4.1] | 9.07 nM |
| UCUCUUUGUACGUCCUCUCUU (ssRNA) [Ic_S1_P4E.1_K4.1_C4.1_H4.1_A4.1_[T5C]_[A6G]_F4.1_[T8C]_[A9C]_T4.1] | 482 nM |
| UCUCUUUGUACCCUUUCUCUU (ssRNA) [Ic_S1_P4E.1_K4.1_C4.1_H4.1_A4.1_[T5C]_[A6C]_[T7C]_F4.1_[A9T]_T4.1] | 26.8 nM |
| UCUCUUUGUACCUAUUCUCUU (ssRNA) [Ic_S1_P4E.1_K4.1_C4.1_H4.1_A4.1_[T5C]_[A6C]_F4.1_[T8A]_[A9T]_T4.1] | 24.6 nM |
